Experimental data from patent publication US20210363194A1.

Experiments:
[1] = molecular target: recombinant mouse mannose-binding lectin (MBL) (mouse); assay: biolayer interferometry; eOD-60mer dilutions on biosensors loaded with biotinylated recombinant mouse MBL; apparent affinity [eOD-60mer]
[2] = molecular target: eOD-60mer (eOD-GT8 60mer; eOD-GT8 fused to lumazine synthase, self-assembled 60-mer nanoparticle); assay: biolayer interferometry, eOD-60mer in solution on immobilized biotinylated mouse MBL; apparent affinity (avidity)

Substance	Kd [1]	Kd [2]
eOD-60mer (eOD-GT8 60mer; eOD-GT8 fused to lumazine synthase, self-assembled 60-mer nanoparticle)	3.78 pM	
recombinant mouse mannose-binding lectin (MBL)		4 pM
